Among the data in PMC5408610, “Identification and characterization of a 20β-HSDH from the anaerobic gut bacterium Butyricicoccus desmolans ATCC 43058” (Journal of Lipid Research, 2017) are stoichiometry N, Km and Vmax values, retold here.

In general, stoichiometry N refers to the number of molecules, sites or subunits per partner or assembly. As a reminder, the Km is the substrate concentration at which the rate is half of its maximum. What is called Vmax is the top rate of the reaction or transport when substrate is in excess.

Data set [1] concerns the target 20β-hydroxysteroid dehydrogenase (20β-HSDH) from Butyricicoccus desmolans ATCC 43058 (Butyricicoccus desmolans ATCC 43058). The experiment in a line: SEC; Superdex 200 analytical column, 4°C; 50 mM Tris-Cl, 300 mM NaCl, 10% glycerol, 10 mM 2-mercaptoethanol, 0.1% Triton X-100, pH 7.5; native mass from retention volume against standard proteins, divided by the subunit mass from SDS-PAGE. For orientation: SEC sorts molecules by how far they enter the pores of the column.

Substrate in the data set “purified protein”: C[C@]12CCC(=O)C=C1CC[C@@H]1[C@@H]2[C@@H](O)C[C@@]2(C)[C@H]1CC[C@]2(O)C(=O)CO
The experiment in a line: purified protein. The data set is classed as biochemical, Agathobaculum desmolans. The conditions noted are these: reductive direction, saturating NADH, 0.05 μM enzyme, standard assay 50 mM phosphate pH 7.5, temperature not stated for Km.

In turn, “20β-hydroxysteroid dehydrogenase (20β-HSDH) from Butyricicoccus desmolans ATCC 43058 (enzyme)” came in with a stoichiometry N in data set [1] of 3.96.

B1: 20β-HSDH (r20β-HSDH, desE) of B. desmolans ATCC 43058 (Agathobaculum desmolans ATCC 43058) (protein)
chain: MAEEFYAVYPKDAWKDPSYRLMDKFSLKGKKGFVTGGGGGIGRNTAAAWAEAGADVALVDIPASKDRLEPLAKEMSERYGVKVVPLYCDVSDEEQVNALKDDLIRELGTVDFAHINAGVCLMGDDVDVPYSTWKKVIDIDLNGAFMTAQVAQQIMREHNHGGSIIMTSSLSGYNANFIGGGPSPVCAYGTAKAGISQLARYMGAGLAPYGIRVNTISPGYIWSGIHEGVMDKAGHDMCLEVVPIKRFGRTDELQGVMLFLASEASSYITGINIPVDGGYSIF
notes: N-terminal Strep-tag from pET-51b(+), E. coli BL21-CodonPlus(DE3) RIPL
B1: in the data set “purified protein”, the Km worked out at 0.80 ± 0.06 µM and the maximal velocity (Vmax) worked out at 30.4 µmol/min.
